Experiment [1] concerns the target WD Repeat Containing Protein 5 (WDR5) (UniProt P61964). The experiment is described as follows: thermal shift.
For experiment [2] the target is unchanged. Kind of experiment: fluorescent polarization (FP) assay.
Experiment [3] has the same target. Kind of experiment: ITC.

Results on 1 substance are retold here after patent US20160245821A1.

The term Kd denotes the concentration at which binding is half-saturated. The low end stands for higher affinity, the high end for lower affinity.

On to “Peptide Substrate (WIN peptide, pentapeptide fragment of the WDR5 binding partner MLL1 protein)”, for which, in experiment [1], the ΔTm*(Thermal shift) was found to be 2 ° C. Further, the Kd in experiment [2] and in experiment [3] was 1.3 µM each time.
